Test results published in patent publication US20090324622A1 (CELLDEX THERAPEUTICS, published 2009).

T1: human macrophage mannose receptor (human, UniProt P22897 19-1456)
T1 construct: whole, on cells; also called MR; MMR
T1 sequence (looked up): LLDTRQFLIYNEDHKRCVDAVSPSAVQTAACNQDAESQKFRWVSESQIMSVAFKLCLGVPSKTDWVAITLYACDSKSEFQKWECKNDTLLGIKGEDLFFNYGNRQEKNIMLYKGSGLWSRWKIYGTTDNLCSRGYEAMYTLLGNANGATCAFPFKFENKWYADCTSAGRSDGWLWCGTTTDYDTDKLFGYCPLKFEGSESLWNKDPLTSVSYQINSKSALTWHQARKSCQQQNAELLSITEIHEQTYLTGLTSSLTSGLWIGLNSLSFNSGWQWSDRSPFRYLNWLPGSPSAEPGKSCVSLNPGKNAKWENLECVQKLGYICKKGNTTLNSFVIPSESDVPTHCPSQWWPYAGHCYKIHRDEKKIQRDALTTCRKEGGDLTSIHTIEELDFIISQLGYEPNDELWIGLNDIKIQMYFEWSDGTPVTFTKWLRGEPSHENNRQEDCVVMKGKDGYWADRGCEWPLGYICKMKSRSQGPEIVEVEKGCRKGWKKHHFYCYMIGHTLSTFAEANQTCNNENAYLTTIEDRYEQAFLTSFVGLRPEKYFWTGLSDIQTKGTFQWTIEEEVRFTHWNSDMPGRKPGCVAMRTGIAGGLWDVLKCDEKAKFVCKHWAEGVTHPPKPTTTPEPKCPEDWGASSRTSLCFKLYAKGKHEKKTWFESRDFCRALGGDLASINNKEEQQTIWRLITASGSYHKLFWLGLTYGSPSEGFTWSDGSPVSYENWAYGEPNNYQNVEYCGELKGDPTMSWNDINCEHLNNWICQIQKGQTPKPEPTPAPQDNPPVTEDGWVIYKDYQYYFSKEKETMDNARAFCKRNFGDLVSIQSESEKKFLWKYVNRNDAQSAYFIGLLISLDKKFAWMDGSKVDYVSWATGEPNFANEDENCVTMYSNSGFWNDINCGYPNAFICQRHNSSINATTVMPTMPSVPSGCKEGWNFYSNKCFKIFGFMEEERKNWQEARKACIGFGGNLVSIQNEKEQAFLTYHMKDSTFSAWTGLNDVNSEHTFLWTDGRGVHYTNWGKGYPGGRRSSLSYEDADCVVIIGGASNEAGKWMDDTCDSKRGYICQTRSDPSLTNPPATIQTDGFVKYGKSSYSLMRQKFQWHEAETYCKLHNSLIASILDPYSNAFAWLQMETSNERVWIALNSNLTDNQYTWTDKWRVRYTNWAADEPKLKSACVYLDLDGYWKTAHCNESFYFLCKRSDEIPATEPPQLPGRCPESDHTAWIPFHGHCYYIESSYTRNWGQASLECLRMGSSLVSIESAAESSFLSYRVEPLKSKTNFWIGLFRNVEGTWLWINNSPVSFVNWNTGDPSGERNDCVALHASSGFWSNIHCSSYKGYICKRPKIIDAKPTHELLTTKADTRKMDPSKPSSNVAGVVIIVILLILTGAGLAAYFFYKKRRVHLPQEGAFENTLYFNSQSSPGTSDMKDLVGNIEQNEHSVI


Legend:
[1] = target: T1, human macrophage mannose receptor; assay: flow cytometry on cultured human DCs
Protocol: Monocyte-derived DCs were exposed either to B11 sfv-βhCG or βhCG-B11 in PBS-BSA buffer for 45 minutes at 37° C. and allowed to mature overnight in the presence of CD40L. Harvested DCs were then washed and stained with mouse anti-βhCG followed by goat anti-hu IgG (Fc)-PE conjugate. Stained cells were analyzed on a flow cytometer (BD-LSR). Approximately, 10,000 events were collected for each sample. Background autofluorescence and isotype matched antibody staining served as controls. Based on the mean fluorescence intensity (MFI) (data not shown), B11 sfv-βhCG binding to MR expressed on DC is similar to that of βhCG-B11.

[2] = target: T1, human macrophage mannose receptor; assay: in situ staining of MR on human tissue cryosections (immunohistochemistry)
Description: Using the anti-MR antibody as a probe, in situ staining of MR on human dermal DCs and macrophages in section of various human tissues was examined. Human tissue cryosections were stained with anti-MR human antibody B11. DCs present in the dermal layer of the skin were clearly labeled (data not shown) with the B11 antibody. It is noted that there was binding to DCs in the dermal layer of skin. […] These studies have been repeated with the βhCG-B11 with identical results.

Row | Binder | binding result [1] | binding result [2]
1 | βhCG-B11 construct (whole human anti-mannose receptor antibody B11 with βhCG fused to the CH3 end of the heavy chain) (antibody, Antibody-antigen fusion expressed in CHO cells; also called B11-βhCG vaccine conjugate; B11-βhCG conjugate) heavy: not shown light: DIQMTQSPSSLSASVGDRVTITCRASQGISRWLAWYQQKPEKAPKSLIYAASSLQSGVPSRFSGSGSGTDFTLTISGLQPEDFATYYCQQYNSYPRTFGQGTKVEIK | binds | 
2 | B11sfv-βhCG construct (single chain B11 antibody, VL and VH, with βhCG fused to the carboxy terminus) (scFv, also called B11 scfv-βhCG; pB11sfv-βhCG) scFv: DIQMTQSPSSLSASVGDRVTITCRASQGISRWLAWYQQKPEKAPKSLIYAASSLQSGVPSRFSGSGSGTDFTLTISGLQPEDFATYYCQQYNSYPRTFGQGTKVEIKGGGGSGGGGSGGGGSEVQLVQSGAEVKKPGESLRISCKGSGDSFTTYWIGWVRQMPGKGLEWMGIIYPGDSDTIYSPSFQGQVTISADKSISTAYLQWSSLKASDTAMYYCTRGDRGVDYWGQGTLVTVSSGSTGGGGSSSKEPLRPRCRPINATLAVEKEGCPVCITVNTTICAGYCPTMTRVLQGVLPALPQVVCNYRDVRFESIRLPGCPRGVNPVVSYAVALSCQCALCRRSTTDCGGPKDHPLTCDDPRFQDSSSSKAPPPSLPSPSRLPGPSDTPILPQ | binds | 
3 | human monoclonal antibody B11 (anti-mannose receptor) (antibody, V domains shown, Fully human whole antibody with a kappa light chain; also called B11 mAb; anti-MR B11 HuMAb) VH: EVQLVQSGAEVKKPGESLRISCKGSGDSFTTYWIGWVRQMPGKGLEWMGIIYPGDSDTIYSPSFQGQVTISADKSISTAYLQWSSLKASDTAMYYCTRGDRGVDYWGQGTLVTVSS VL: DIQMTQSPSSLSASVGDRVTITCRASQGISRWLAWYQQKPEKAPKSLIYAASSLQSGVPSRFSGSGSGTDFTLTISGLQPEDFATYYCQQYNSYPRTFGQGTKVEIK |  | binds
